{
  "source": "the DeepSol protein solubility set",
  "data": [
    {"assay": "soluble on expression in E. coli; label from the status in PepcDB or PDB records", "values": [
      {"sequence": "MSEMSLIMLAAGNSTRFNTKVKKQFLRLGNDPLWLYATKNLSSFYPFKKIVVTSSNITYMKKFTKNYEFIEGGDTRAESLKKALELIDSEFVMVSDVARVLVSKNLFDRLIENLDKADCITPALKVADTTLFDNEALQREKIKLIQTPQISKTKLLKKALDQNLEFTDDSTAIAAMGGKIWFVEGEENARKLTFKEDLKKLDLPTPSFEIFTGNGFDVHEFGENRPLLLAGVQIHPTMGLKAHSDGDVLAHSLTDAILGAAGLGDIGELYPDTDMKFKNANSMELLKQAYDKVREIGFELINIDICVMAQSPKLKDFKQAMQSNIAHTLDLDEFRINVKATTTEKLGFIGRKEGMAVLSSVNLKYFDWTRL", "soluble on expression in E. coli": "soluble"},
      {"sequence": "MSENSIRLTQYSHGAGCGCKISPKVLETILHSEQAKFVDPNLLVGNETRDDAAVYDLGNGTSVISTTDFFMPIVDNPFDFGRIAATNAISDIFAMGGKPIMAIAILGWPINKLSPEIAREVTEGGRYACRQAGIALAGGHSIDAPEPIFGLAVTGIVPTERVKKNSTAQAGCKLFLTKPLGIGVLTTAEKKSLLKPEHQGLATEVMCRMNIAGASFANIEGVKAMTDVTGFGLLGHLSEMCQGAGVQARVDYDAIPKLPGVEEYIKLGAVPGGTERNFASYGHLMGEMPREVRDLLCDPQTSGGLLLAVMPEAENEVKATAAEFGIELTAIGELVPARGGRAMVEIR", "soluble on expression in E. coli": "not soluble"},
      {"sequence": "MSEPKRLFFAIDLPDDARAQIIAWRAAHFASEDGRPVAAANLHLTLAFLGDVSSDKQRALAQLAGRIRQPGFTLHLDDAGQWLRSRVVWLGMRQPPRGLLQLANMLRAQAARSGCYQSPQPFHPHITLLRDASHTVAIPPPGFCWSFPVTSFALYASSYGQGRTRYAELQRWTLGE", "soluble on expression in E. coli": "not soluble"},
      {"sequence": "MSEPSNNSEKVPDEVQEIRDAENTFNSIQRCTTTLKGFQKSYDELKLQRKQSLQTIRQHEADIQQLEQGIRVHTAAFQLLRRLLSEIRRPNQILQEALQARHIEIEAFDDEAERLNVLIVEERRNLVELQAARKIRKSYLIVFQKQIAQLKAENKDEEATPAQEQMTKKSLKRRRDDEDDETGPSARRAPNSVGAF", "soluble on expression in E. coli": "soluble"},
      {"sequence": "MSEVEKTYCGFIAIVGRPNVGKSTLLNELLGQKISITSRKPQTTRHRIMGIHTEGPYQAIYVDTPGLHIEEKRAINRLMNRAASSSLGDVELVIFVVEGTHWTADDEMVVNKLRSLQCPVLLAINKVDNVTDKTKLLPHMQFLSQQMNFLDVVPISAEKGMNVDTIASIVRKHMPEAEHHFPEDYITDRSQRFMASEIIREKLMRFLGEELPYSVTVEIEQFVPNERGGYNIHGLILVEREGQKKMVIGNKGSKIKVIGTEARQDMERMFEAKVHLELWVKVKSGWADDERALRSLGYTDDLK", "soluble on expression in E. coli": "not soluble"},
      {"sequence": "MSFVPSEVRLDHTFLEWDKEWIFQRLPKTEIQIPREFEPDIETDAIPTIARQPADPNTTWNETGLDQIQMGPTINSTKN", "soluble on expression in E. coli": "not soluble"},
      {"sequence": "MSGAVPETPYHQRWLAFPDAVSSYRPLESRLAGTSRATADNRTPCTGRLGTPRVFLMATDDVSKAYSSPTFDAEALLGTVISAEDPDRVLIEPWATGVDGVILDVGSGTGRWTGHLASLGHQIEGLEPATRLVELARQTHPSVTFHHGTITDLSDSPKRWAGLLAWYSLIHMGPGELPDALVALRMAVEDGGGLLMSFFSGPSLEPMYHPVATAYRWPLPELAQALETAGFQVTSSHWDPRFPHAYLTAEASKQNLALEHHHHHH", "soluble on expression in E. coli": "not soluble"},
      {"sequence": "MSGEGDTTLKAICYKPGSLQLLDQRKLPLETIYLEIRDASDGWSAIQEMVVRGAPAIAIAAALSLAVEVFNFHGFDGSASDAVAFLENKLDYLVSSRPTAVNLADAALKLKHVIAKALATATEAKSIFKAYIEASEDMLEDDVVSNKAIGNFGLSLLRQQAKNPDKLSVLTHCNTGSLATAGYGTALGVIRALHTQGILERAYCTETRPFNQGSRLTAFELVHEKIPATLIADSAAAALMKDGRVDGVIVGADRVASNGDTANKIGTYSLALCAKHHGIPFYVAAPLTSVDLSLSSGKEIVIEERSPKELMHTHGGLGERIAAPGISVWNPAFDMTPAELIAGIITEKGVITKNGNDTFDISSFAKKITGNSSR", "soluble on expression in E. coli": "soluble"},
      {"sequence": "MSGGIDSTATCLMLQEQGYEIVGVTMRVWGDEPQDARELAARMGIEHYVADERIPFKETIVKNFIDEYKQGRTPNPCVMCNPLFKFRVLAEWADKLDCAYIATGHYSRLEERSGHIYIVAGDDDKKDQSYFLWRLGQDILKRCIFPLGDYTKIKVREYLAEKGYEAKSKEGESMEVCFIQGDYRDFLREQCPELDTEIGPGWFVNSEGVKLGQHKGAPYYTIGQRKGLEIALGKPAYVLKINPQKNTVMLGDAEQLQTEYMLAEQDRIVDEQELFSCENLAVRIRYRSRPIPCRVKRLEDGRLLVRFRETASAVAPGQSAVFYDGRRVLGGAFIASQRGIGLVIIENKDKL", "soluble on expression in E. coli": "not soluble"},
      {"sequence": "MSGGLLIESVIPGSIASELEIEPGDRLVAVNNRPLRDIVDYNFHADGEELLLEIVKPSGEVWEVEVERDDDEALGLVFAAPEPARCGNRCVFCFVHQLPKGLRRPLYVKDEDYRLSFLYGNYVTLSNIGEEDLQRIIEQRLSPLYISVHATDPALRERLLGRKGIIPILDIMTRLAEARITMHTQAVLCPGWNDGDALRRTVADLASLYPRVASLAIVPVGLTRHRDRLPLLEPVSADYARDFIYEWLPEAQRLADAFGEPFLFLADEFFIKADAPFPPLDFYGDFPQIENGVGMIPLFMDEADRVLRRARRMKPRTLTVVTGHSPYRYLADFLARLSARTGITFQPVAIPNRLFGESVTVTGLVAGRDILSELAGRNLGDGVLIPDVMLKEGEGVFLDDLTIGALEQGLGVPVVVVPSSPAGVMEGIRALRPLEHHHHHH", "soluble on expression in E. coli": "not soluble"},
      {"sequence": "MSGKISEEAMQEQAERAEYVKNIGIEYRFGCYEEKRPESCQLLGEYMEALQQNFQAAVAIFKKNCDENSYPKSCFKYGMYMLAGKVGDDASLSKMIRPMKIACDANIPQGCRYLSLVHWNGEKDRKADSEKAERYMRRACELEDGEACWLLSTWYMGNKEKFKTNAAGEAKELDRAELGSLSRDMDKSLQFAIRACEMDIPQSCANVSRMFKLGDGVPKDLDQAKKYADRAKEIMETLRSNDTNAGFTG", "soluble on expression in E. coli": "not soluble"},
      {"sequence": "MSGLLNFGVPKGSLENATVELFRKAGWQISISSRSYFPGVDDDEMNCKLIRPQEMGKYVERGTIDAGIAGRDWVRENESDVVEVCEMVYSKVSRRPARWVLVVTRDSAVQKPEDLHGATISTELVGFTKRYFAERNIPVTVEFSWGAT", "soluble on expression in E. coli": "not soluble"},
      {"sequence": "MSGLPCNERMDCTQCPKAVENSIHYTHNKKGFHLPPHKCETNILFFLLKGQILINSEEYAGTIINSGEFVLQAIASKVEILAMTDSEGILYTFDDPKAFCYDRYTYILKNVPPPLISEPLKIKPEIKLFLEGVASYLNADKICKELLEFKRKELYYLLAHYYTDYELSPVVHSLSQYTSSFEYFILKHHKQIKSVEEFAQLGGYSVTTFRRIFKAIFNEPAYEWMMKQRKESILYQLRYTDASISEICFGHGFESLSHFSNFCKKSFGDSPRNIRKKEKEEISPNT", "soluble on expression in E. coli": "not soluble"},
      {"sequence": "MSGSNTAISRRRLLQGAGAMWLLSVSQVSLAAVSQVVAVRVWPASSYTRVTVESNRQLKYKQFALSNPERVVVDIEDVNLNSVLKGMAAQIRADDPFIKSARVGQFDPQTVRMVFELKQNVKPQLFALAPVAGFKERLVMDLYPANAQDMQDPLLALLEDYNKGDLEKQVPPAQSGPQPGKAGRDRPIVIMLDPGHGGEDSGAVGKYKTREKDVVLQIARRLRSLIEKEGNMKVYMTRNEDIFIPLQVRVAKAQKQRADLFVSIHADAFTSRQPSGSSVFALSTKGATSTAAKYLAQTQNASDLIGGVSKSGDRYVDHTMFDMVQSLTIADSLKFGKAVLNKLGKINKLHKNQVEQAGFAVLKAPDIPSILVETAFISNVEEERKLKTATFQQEVAESILAGIKAYFADGATLARRG", "soluble on expression in E. coli": "soluble"},
      {"sequence": "MSGSVPFIRRLAVIGVGLIGGSLARALRTAGAVGEIIGIDRDEANLRQAAELGVVDRAAATVAEGVAGADMVFLSVPVRAMAGVVREIAPHLAAGCIVTDGGSVKAEVVAACDPLMPAGTCFVGGHPIAGTEHSGVGASFATLYQGKRCILTPAATTDRDALATVARMWEAAGSEVVLMDPEKHDRVVAAISHLPHMVAYALVNAVEGYDRFEESILRYSAGGFRDFTRIASSDPAMWRDIALMNREGVLEMMDHFAAYFGQLRSLVAAGDAEGLERFFRDSKESRDAILLEHHHHHH", "soluble on expression in E. coli": "soluble"},
      {"sequence": "MSGTKASVFSTILQLMNSLAIRAVADNVRRLLEARRLSQKELAALSGVSQKSINDLLNYGGTVSKEPRLGTIEKLAKGFGIATWQLQIPGLPVDLLQGQMVSKVIENFRDAGTVGRENISRVAESEVRYSLVQNSERGAPR", "soluble on expression in E. coli": "not soluble"},
      {"sequence": "MSGYACNQPQLYSQCNCPSFCSGYMQQQPQYYQSPCGYSSGCSGGSGGGYYPRRRHHKHKKPRRKFRFDSDEDEDLPPPPPRKSAKISRVHSEEQGFIEEKPRVTETTKTDSSWENEDLWEKKFVTESTHTKAEEKLDSEEFPEITSEEIEAAMRRKTTLPPRVVQPQPVAPAGGGLGGLGLGNGGLFGISSGVGVGVPGVGPIGVSSGLGIGK", "soluble on expression in E. coli": "not soluble"},
      {"sequence": "MSHGSGLVRTTCSSGGALGPAQPSEGLLDRVYPLTHGALFKVAQMGYRLLVAGFQNCRGIDIY", "soluble on expression in E. coli": "not soluble"},
      {"sequence": "MSHHNPLVSVVIPSKNRPDLVIATLVSVIDQTYDNIEIIVVDDGSDMPLAPLLKDRFSDRVLCLRNDQSLGGAVARNRGAQSAHGDYITFLDDDDLWLPKKLEMQVDAFSKHGVDIGVVYCGFDFLCKEEIVPRQNKFHNDYDLSIAVLSGCPFGSPTPLIRKHYFDMVGGFDRELPSCQDWDLWIRLSKVCGFYPVKESLALYRVHGDQISTNLRKKIDGRKMVLAKHYDEIKNYPRVLSAHYSRIGSLCVLADEHVEARDFFSKALASNMFDGGSFVHLVLQFLCRPLEKWLIERFSVNTIDGIKVIHLEHHHHHH", "soluble on expression in E. coli": "not soluble"},
      {"sequence": "MSHIFDASVLAPHIPSNLPDNFKVRPLAKDDFSKGYVDLLSQLTSVGNLDQEAFEKRFEAMRTSVPNYHIVVIEDSNSQKVVASASLVVEMKFIHGAGSRGRVEDVVVDTEMRRQKLGAVLLKTLVSLGKSLGVYKISLECVPELLPFYSQFGFQDDCNFMTQRF", "soluble on expression in E. coli": "soluble"},
      {"sequence": "MSHKLTILPFLIKFTPKFPQSIDHDEHGLNVYAFDLDHTIIKPKSPNISFSRSASDWQFINFNSKKSTLDYLCNIIDNDPTAVIVIFSNQGGVITVPRTSKSCTKYTNKILLFLKAIKNDERGETLSHRLWLYAAPKRPKTFAANHSKITFASLGESYNNDPNIFEKVRKPMTGMVEFFKRDLESAYRVSEQISPIKLNWIYYCGDAAGRKKDFSDSDIKFAENLHVEFKYPEEIFHG", "soluble on expression in E. coli": "soluble"},
      {"sequence": "MSHLNYNHLYYFWMVCKQGSVTKAAEALFLTPQTVTGQIKALEDRLDGKLTKRNGRNIEPTELGQLIYKYADRMFGLSYEMLDIVNYSQQANVLFDVGVADALSKRLVSKVLSTTVPEDASIHLRCFESTHELLLEQLSQHKLDMILSDCPVDSSQNSGLFSKKLGECEMSFFCSKELKGVTFPEVLEKHKVLIPGSRTSMGRKVVQWCDQQGVTPNILGEFDDVALMKAFARENNAVFLAPSVYMNEADSDLSLHKIADVRDLKEEYYVIFAERMIQHPAVKSICEADFSHLFDF", "soluble on expression in E. coli": "not soluble"},
      {"sequence": "MSHRNDSSRKHRKSRSIKNDQHYPTVSFDGAESVDIPADEGKSPVSTHLSLASNPTEFKFMDEIALLKRGRIDKDAPKHPYNRRGQQPMMKKEISVTSAHSNSSLPVRSPAIMTLMGGVPEAEKEYNVGKGGLLKISKMKEGGKRYEVSANERFTVFQQTAGQTCLFTFKA", "soluble on expression in E. coli": "not soluble"},
      {"sequence": "MSHRPIAIFDFDGTLTRCDSLLPFLRQAQPVILFWLRLPFYLAMWMCYKLRLAPADRTKAAILSTVLKGKREVECRAMGQRFVPAIESILRPEALRCLEWHRSEGHRLVLLTASLLPCVEPWAEKTGFHTVIATLPEIKSGILTGRFEGNNCKGKEKIHRLDRALPHWRDSISYGYGDSPSDRPLLSLCTHSYYRRFPAL", "soluble on expression in E. coli": "not soluble"}
    ]}
  ]
}
